Laboratory results from PMC8495130, “Synthesis of L-asparagine Catalyzed by a Novel Asparagine Synthase Coupled With an ATP Regeneration System” (Frontiers in Bioengineering and Biotechnology, 2021).

Assays:
[1] = substrate: Nc1ncnc2c1ncn2[C@@H]1O[C@H](COP(=O)(O)OP(=O)(O)OP(=O)(O)O)[C@@H](O)[C@H]1O; experiment: HPLC of L-Asn after OPA derivatization; double reciprocal plot; type: biochemical, Ligilactobacillus salivarius; settings: standard assay: L-Asp, NH4Cl, Mg2+, Tris-HCl pH 8.0, 37°C, purification state of the kinetic sample not stated
Source text: HPLC of L-Asn after OPA derivatization; double reciprocal plot on LsaAS-A

purified protein [2] = substrate: N; experiment: purified protein; settings: standard assay: L-Asp, ATP, Mg2+, Tris-HCl pH 8.0, 37°C, purification state of the kinetic sample not stated
purified protein [3] = substrate: N[C@@H](CC(=O)O)C(=O)O; experiment: purified protein; settings: standard assay: NH4Cl, ATP, Mg2+, Tris-HCl pH 8.0, 37°C, purification state of the kinetic sample not stated

B1: LsaAS-A (Ligilactobacillus salivarius UCC118) (protein)
chain: MDLIIPKDYDPKLSIRETQEAIRYIRETFQDEFGKEMGLNRVSAPMYVEKSSGINDNLNGYEKPVSFTMKDMPGETIEVVHSLAKWKRMALKKYGFGLHEGLYTNMNAIRKDEDLDNFHSSYVDQWDWEKVISKDERNEKTLKETVELIFKVVKHMEHEVWYKFPNAVYHLPDKIHFITSQELEDKYPELEDAKDRENAICKELGCVFVMQIGDVLKSGKRHDGRAPDYDDWKLNGDILFWYEPLQCALELSSMGIRVDEDSMVEQLKKTGDEDRLKLQYHKMILNKELPYTIGGGIGQSRLCMLLLGKAHVGEVQASIWPDEMLKKCEENGIHIL
notes: full-length asnA product (~40 kDa) from plasmid pMA5, expressed in Bacillus subtilis WB600; Ni-NTA purification described in methods
Work on B1 yielded a Km [1] of 2240 µM, a Km (purified protein [2]) of 6500 µM and a Km (purified protein [3]) of 780 µM.
